In data set [1] the target is AtBAM2 with the Ndel1 truncation (Arabidopsis thaliana) (UniProt O65258). The data set can be described thus: small-angle X-ray scattering.
Data set [2] deals with the molecule itself. The data set can be described thus: small-angle X-ray scattering.

The stoichiometry N is the number of molecules, sites or subunits per partner or assembly. “AtBAM2 with the Ndel1 truncation (from UniProt O65258 86-542) (domain or fragment)” yielded a stoichiometry N in data set [1] of 4.

B1: Arabidopsis thaliana β-amylase2 (AtBAM2), wild type (enzyme, UniProt O65258 56-542, looked up)
chain: AESTEEDRVPIDDDDDSTDQLVDEEIVHFEERDFAGTACVPVYVMLPLGVIDMNSEVVEPEELLDQLRTLKSVNVDGVMVDCWWGIVESHTPQVYNWSGYKKLFQMIRELGLKIQVVMSFHECGGNVGDDVHIQIPEWVREIGQSNPDIYFTDSAGRRNTECLTWGIDKQRVLRGRTALEVYFDYMRSFRVEFDEFFEEKIIPEIEVGLGPCGELRYPSYPAQFGWKYPGIGEFQCYDKYLMNSLKEAAEVRGHSFWGRGPDNTETYNSTPHGTGFFRDGGDYDSYYGRFFLNWYSRVLIDHGDRVLAMANLAFEGTCIAAKLSGIHWWYKTASHAAELTAGFYNSSNRDGYGPIAAMFKKHDAALNFTCVELRTLDQHEDFPEALADPEGLVWQVLNAAWDASIPVASENALPCYDREGYNKILENAKPLTDPDGRHLSCFTYLRLNPTLMESQNFKEFERFLKRMHGEAVPDLGLAPGTQETNPE
Consider B1, for which the “stoichiometry N” value in data set [2] is 4.
